Reference: patent US20230140384A1 (Bristol-Myers Squibb, published 2023)
Positions count from the first letter of the chain named. In names and notes the source's numbering stands. Blank lines part the entries; values can stand above or below the binder they belong to.

Key:
hCD64 [1] = target: T1, hCD64 (human, UniProt P12314 16-288); test: SPR % Rmax, compared with 12D6-IgG1f-P238K
T1 construct: also called FcγRI
Protocol: (§1) The binding of human FcγRs to antibodies was studied by surface plasmon resonance using a Biacore 8K system (GE Healthcare, USA). For these studies, protein A was immobilized on flow cells 1-4 of the CM5 sensor chip using standard ethyl (dimethylaminopropyl) carbodiimide (EDC)/N-hydroxysuccinimide […] chemistry, with ethanolamine blocking, in a running buffer of 10 mM HEPES pH 7.4, 150 mM NaCl, 3 mM EDTA, 0.05% surfactant p20, to a density of ˜3000 RU. Purified 12D6-24-IgG1f antibody (10 μg/mL) or expression supernatants of all other antibodies (diluted to ˜10 μg/ml) were captured on the protein A surface to a density of ˜1000-1200 RU, and the binding of FcγR analytes was tested in running buffer consisting of 10 mM NaPO₄, 130 mM NaCl, 0.05% p20, buffer (PBS-T) pH 7.1 at 25° C., using 120 s association time and 120 s dissociation time at a flow rate of 20 μL/min. The data were analyzed using Biacore 8K evaluation software by determining the measured binding response as a percentage of theoretical maximum binding response for each antibody (% Rmax), based on the level of captured antibody, assuming 100% fractional activity and only taking into account protein mass without glycosylation.

hCD64 [2] = target: T1, hCD64; test: SPR, antibody captured on protein A, FcγR as analyte
Protocol: as §1

T1 sequence (P12314 16-288 limits assumed): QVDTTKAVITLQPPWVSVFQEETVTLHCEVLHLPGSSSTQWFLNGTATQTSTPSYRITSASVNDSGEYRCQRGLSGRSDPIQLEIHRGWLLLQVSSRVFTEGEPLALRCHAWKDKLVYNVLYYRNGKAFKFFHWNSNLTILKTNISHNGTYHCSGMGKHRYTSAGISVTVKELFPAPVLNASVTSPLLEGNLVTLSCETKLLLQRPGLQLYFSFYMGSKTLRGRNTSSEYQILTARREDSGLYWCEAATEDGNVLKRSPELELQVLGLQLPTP

B1: 12D6-IgG1f-L235E-P238K (antibody)
heavy: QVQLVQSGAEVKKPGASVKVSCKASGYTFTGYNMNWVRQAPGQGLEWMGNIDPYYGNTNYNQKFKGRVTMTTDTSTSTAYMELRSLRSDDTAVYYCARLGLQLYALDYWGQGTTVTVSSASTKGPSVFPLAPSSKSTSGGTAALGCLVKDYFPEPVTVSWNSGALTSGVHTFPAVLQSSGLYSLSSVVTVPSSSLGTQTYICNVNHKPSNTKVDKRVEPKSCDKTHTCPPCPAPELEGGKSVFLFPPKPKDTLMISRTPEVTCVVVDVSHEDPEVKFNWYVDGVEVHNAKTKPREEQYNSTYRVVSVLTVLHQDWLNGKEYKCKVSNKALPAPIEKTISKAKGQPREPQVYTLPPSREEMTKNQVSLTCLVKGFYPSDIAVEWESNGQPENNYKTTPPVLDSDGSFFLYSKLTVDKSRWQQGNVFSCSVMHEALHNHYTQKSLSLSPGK
light: DIVMTQTPLSLPVTPGEPASISCRSSQSLVHSNANTYLHWYLQKPGQSPQLLIYKLTNRFFGVPDRFSGSGSGTDFTLKISRVEAEDVGVYYCSQSIHVPWTFGGGTKVEIKRTVAAPSVFIFPPSDEQLKSGTASVVCLLNNFYPREAKVQWKVDNALQSGNSQESVTEQDSKDSTYSLSSTLTLSKADYEKHKVYACEVTHQGLSSPVTKSFNRGEC
notes: Tested as expression supernatant; copies: 2 + 2
fold reduction of binding against P238K alone (hCD64 [1]): ~10 fold

B2: 12D6-IgG2.5G1.3f-P238K (antibody)
heavy: QVQLVQSGAEVKKPGASVKVSCKASGYTFTGYNMNWVRQAPGQGLEWMGNIDPYYGNTNYNQKFKGRVTMTTDTSTSTAYMELRSLRSDDTAVYYCARLGLQLYALDYWGQGTTVTVSSASTKGPSVFPLAPSSRSTSESTAALGCLVKDYFPEPVTVSWNSGALTSGVHTFPAVLQSSGLYSLSSVVTVPSSNFGTQTYTCNVDHKPSNTKVDKTVERKCCVECPPCPAPEAEGAKSVFLFPPKPKDTLMISRTPEVTCVVVDVSHEDPEVKFNWYVDGVEVHNAKTKPREEQYNSTYRVVSVLTVLHQDWLNGKEYKCKVSNKALPAPIEKTISKAKGQPREPQVYTLPPSREEMTKNQVSLTCLVKGFYPSDIAVEWESNGQPENNYKTTPPVLDSDGSFFLYSKLTVDKSRWQQGNVFSCSVMHEALHNHYTQKSLSLSPGK
light: B1 light
notes: copies: 2 + 2
binding result (hCD64 [2]): no binding (tested: 1 µM)

Second part, the binder after the results:

binding result (hCD64 [2]): no binding (tested: 1 µM)
B3: 12D6-IgG1.3f-P238K (antibody)
heavy: QVQLVQSGAEVKKPGASVKVSCKASGYTFTGYNMNWVRQAPGQGLEWMGNIDPYYGNTNYNQKFKGRVTMTTDTSTSTAYMELRSLRSDDTAVYYCARLGLQLYALDYWGQGTTVTVSSASTKGPSVFPLAPSSKSTSGGTAALGCLVKDYFPEPVTVSWNSGALTSGVHTFPAVLQSSGLYSLSSVVTVPSSSLGTQTYICNVNHKPSNTKVDKRVEPKSCDKTHTCPPCPAPEAEGAKSVFLFPPKPKDTLMISRTPEVTCVVVDVSHEDPEVKFNWYVDGVEVHNAKTKPREEQYNSTYRVVSVLTVLHQDWLNGKEYKCKVSNKALPAPIEKTISKAKGQPREPQVYTLPPSREEMTKNQVSLTCLVKGFYPSDIAVEWESNGQPENNYKTTPPVLDSDGSFFLYSKLTVDKSRWQQGNVFSCSVMHEALHNHYTQKSLSLSPGK
light: B1 light
notes: Tested as expression supernatant; IgG1.3f carries L234A, L235E and G237A; copies: 2 + 2

binding result (hCD64 [2]): no binding (tested: 1 µM)
B4: 12D6-IgG2.3G1.3f-P238K (antibody)
heavy: B2 heavy with S133C, C221S
light: B1 light
notes: copies: 2 + 2
